According to patent US20200231684A1 (published 2020):

T1: recombinant human IL-36R (ECD) (human, UniProt Q9HB29 20-332)
T1 construct: range 20-332; also called IL-1RL2; IL-1Rrp2
T1 sequence (looked up): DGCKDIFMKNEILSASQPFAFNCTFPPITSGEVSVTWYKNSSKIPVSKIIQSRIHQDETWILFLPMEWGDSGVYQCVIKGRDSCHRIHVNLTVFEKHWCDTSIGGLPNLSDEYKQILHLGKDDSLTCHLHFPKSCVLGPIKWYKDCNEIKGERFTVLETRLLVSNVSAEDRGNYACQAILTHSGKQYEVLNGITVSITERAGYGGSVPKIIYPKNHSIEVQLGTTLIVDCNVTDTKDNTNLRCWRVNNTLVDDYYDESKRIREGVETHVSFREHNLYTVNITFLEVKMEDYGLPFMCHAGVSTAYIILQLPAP

T2: mouse IL-36R (mouse, UniProt Q9ERS7 22-338)
T2 sequence (looked up): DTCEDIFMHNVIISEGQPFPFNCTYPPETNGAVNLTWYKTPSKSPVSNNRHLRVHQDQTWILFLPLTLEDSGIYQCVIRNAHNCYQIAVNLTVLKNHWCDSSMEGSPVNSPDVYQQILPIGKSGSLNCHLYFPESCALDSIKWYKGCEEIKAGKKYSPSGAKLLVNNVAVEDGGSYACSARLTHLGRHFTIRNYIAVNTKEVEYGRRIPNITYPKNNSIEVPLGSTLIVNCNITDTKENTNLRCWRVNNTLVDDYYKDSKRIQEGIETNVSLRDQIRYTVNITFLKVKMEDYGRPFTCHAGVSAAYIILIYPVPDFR

T3: human IL-1R1 (human, UniProt P14778 18-336, limits assumed)
T3 construct: also called IL-1RI
T3 sequence (looked up): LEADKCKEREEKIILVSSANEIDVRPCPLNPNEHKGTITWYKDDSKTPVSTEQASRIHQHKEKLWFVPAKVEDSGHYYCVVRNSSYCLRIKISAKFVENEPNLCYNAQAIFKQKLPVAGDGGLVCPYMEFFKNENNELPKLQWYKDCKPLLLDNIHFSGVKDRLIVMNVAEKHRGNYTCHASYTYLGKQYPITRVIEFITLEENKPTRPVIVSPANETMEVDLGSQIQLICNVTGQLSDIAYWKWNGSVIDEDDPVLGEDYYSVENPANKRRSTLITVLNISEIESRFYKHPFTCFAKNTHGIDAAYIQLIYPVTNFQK

T4: human IL-36R on cells (human, UniProt Q9HB29 20-575)
T4 sequence (looked up): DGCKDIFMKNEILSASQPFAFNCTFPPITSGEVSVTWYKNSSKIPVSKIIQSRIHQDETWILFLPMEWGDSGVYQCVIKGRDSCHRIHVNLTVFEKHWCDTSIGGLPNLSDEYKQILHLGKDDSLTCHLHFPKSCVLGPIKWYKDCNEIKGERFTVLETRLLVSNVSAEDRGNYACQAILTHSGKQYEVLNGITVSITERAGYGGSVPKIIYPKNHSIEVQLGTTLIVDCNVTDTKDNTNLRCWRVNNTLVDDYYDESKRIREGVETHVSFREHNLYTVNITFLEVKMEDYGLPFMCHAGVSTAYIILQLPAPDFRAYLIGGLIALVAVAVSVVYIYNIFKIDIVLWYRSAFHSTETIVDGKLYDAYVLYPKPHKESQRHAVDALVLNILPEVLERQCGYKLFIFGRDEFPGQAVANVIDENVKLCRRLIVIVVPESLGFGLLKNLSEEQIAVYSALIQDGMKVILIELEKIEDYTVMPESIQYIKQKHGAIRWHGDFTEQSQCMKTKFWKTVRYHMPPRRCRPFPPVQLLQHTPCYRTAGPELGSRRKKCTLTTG


Legend:
[1] = target: T1, recombinant human IL-36R (ECD); assay: SPR (ProteOn), single IL-36R surface coat concentration
Experimental: A) Kinetics and binding affinities of anti-IL-36R antibodies binding to recombinant human IL-36R were measured using the Proteon (Bio-Rad, Hercules, Calif.) using material generated from hybridoma following single column purification. […] Binding of the chimeric anti-IL36R IgGs is equivalent to the respective mouse leads.

mouse IL-36R = target: T2, mouse IL-36R; assay: BLI (Fortebio Octet), antibody injected over antigen surface
Experimental: (§1) B) Molecular selectivity over mouse IL-36R and human IL-1R1 The mouse and chimeric anti-IL-36R antibodies were also injected over either a mouse IL-36R or a human IL-1R1 surface at a concentration of 100 nM. The binding signal to mouse IL-36R and to human IL-1R1 for these antibodies measured using the Fortebio Octet (Fortebio, Menlo Park, Calif.) is zero, which indicates these antibodies selectively bind to human IL-36R.

human IL-1R1 = target: T3, human IL-1R1; assay: as above
Experimental: as §1

human IL-36R on cells [2] = target: T4, human IL-36R on cells; assay: cell-based or functional assay
human IL-36R on cells [3] = target: T4, human IL-36R on cells; assay: flow cytometry, HEK293 cells transfected with full-length human IL-36R
Experimental: HEK293 cells transfected with full-length human IL-36R or NCI/ADR-RES cells were passaged for 24 hours prior to staining. Cells were removed from flasks by rinsing with 10 ml of 5 mM EDTA in PBS, and then incubated at 37° C. for 10 min with an additional 10 ml of 5 mM EDTA and 2.5 ml of Accumax to declump/disperse cells. Antibodies were then diluted to specified concentrations in PBS+2% BSA, and cells incubated for 20 min at room temperature. Excess antibody was then washed by adding 200 μl of PBS and then centrifuged. Secondary reagent was then added at 50 μl per well and cells are incubated for 15 min at room temperature and then washed as above. Cells were resuspended in 200 μl PBS and analyzed by flow cytometry.

[4] = target: T1, recombinant human IL-36R (ECD); assay: SPR (ProteOn), recombinant human IL-36R at 7 surface densities, global fit
Experimental: A) Kinetics and binding affinities of anti-IL-36R antibodies binding to recombinant human IL-36R were measured using the Proteon (Bio-Rad, Hercules, Calif.) using material generated from hybridoma following single column purification. […] The binding affinities of the mouse antibodies to human IL-36R run at 7 different surface densities (globally fit) is shown in Table 1. Binding of the chimeric anti-IL36R IgGs is equivalent to the respective mouse leads.

[5] = target: cynomolgus IL-36R on BaF/3 cells (cynomolgus, UniProt A0A2K5WSK9 20-558); assay: cell-based or functional assay
human IL-36R on cells [6] = target: T4, human IL-36R on cells; assay: cell-based or functional assay; remark: listed apart in the source

Sequence of cynomolgus IL-36R on BaF/3 cells (A0A2K5WSK9 entry or part of it): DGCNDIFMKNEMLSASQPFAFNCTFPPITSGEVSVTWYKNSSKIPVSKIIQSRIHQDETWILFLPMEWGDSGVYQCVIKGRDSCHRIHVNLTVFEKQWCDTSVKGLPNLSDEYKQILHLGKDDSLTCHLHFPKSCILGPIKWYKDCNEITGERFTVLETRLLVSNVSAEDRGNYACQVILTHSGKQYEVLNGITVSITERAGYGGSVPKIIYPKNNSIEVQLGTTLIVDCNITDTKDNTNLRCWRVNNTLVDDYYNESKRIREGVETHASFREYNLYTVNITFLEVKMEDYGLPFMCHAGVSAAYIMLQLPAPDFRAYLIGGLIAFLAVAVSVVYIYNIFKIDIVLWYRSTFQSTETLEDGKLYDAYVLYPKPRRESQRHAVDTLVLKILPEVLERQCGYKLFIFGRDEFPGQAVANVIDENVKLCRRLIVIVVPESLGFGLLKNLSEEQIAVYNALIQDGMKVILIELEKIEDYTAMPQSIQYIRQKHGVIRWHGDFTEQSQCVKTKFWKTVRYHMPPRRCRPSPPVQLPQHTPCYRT

| Binder | Kd [1] | binding result (mouse IL-36R) | binding result (human IL-1R1) | IC90, IL-8 release, human primary keratinocytes (NHK), trun-IL-36a (human IL-36R on cells [2]) | IC90, IL-8 release, human primary keratinocytes (NHK), trun-IL-36b (human IL-36R on cells [2]) | IC90, IL-8 release, human primary keratinocytes (NHK), trun-IL-36g (human IL-36R on cells [2]) | IC90, pNFκB, human primary keratinocytes (NHK), trun-IL-36a (human IL-36R on cells [2]) | IC90, pNFκB, human primary keratinocytes (NHK), trun-IL-36b (human IL-36R on cells [2]) | IC90, pNFκB, human primary keratinocytes (NHK), trun-IL-36g (human IL-36R on cells [2]) | Kd [4] | IC90, pNFκB, BaF/3 cynomolgus IL-36R cells, trun-IL-36a [5] | IC90, pNFκB, BaF/3 cynomolgus IL-36R cells, trun-IL-36b [5] | IC90, pNFκB, BaF/3 cynomolgus IL-36R cells, trun-IL-36g [5] | IC90, GM-CSF release, NCI/ADR-RES cells, trun-IL-36a (human IL-36R on cells [6]) | IC90, GM-CSF release, NCI/ADR-RES cells, trun-IL-36b (human IL-36R on cells [6]) | IC90, GM-CSF release, NCI/ADR-RES cells, trun-IL-36g (human IL-36R on cells [6]) | IC90, IL-6 release, NCI/ADR-RES cells, trun-IL-36a (human IL-36R on cells [6]) | IC90, IL-6 release, NCI/ADR-RES cells, trun-IL-36b (human IL-36R on cells [6]) | IC90, IL-6 release, NCI/ADR-RES cells, trun-IL-36g (human IL-36R on cells [6]) | IC90, IL-8 release, NCI/ADR-RES cells, trun-IL-36a (human IL-36R on cells [6]) | also measured |
| --- | --- | --- | --- | --- | --- | --- | --- | --- | --- | --- | --- | --- | --- | --- | --- | --- | --- | --- | --- | --- | --- |
| antibody 33D10 (antibody, V domains shown, Mouse monoclonal from hybridoma; also called 33D10B12; Mouse 33D10) VH: QVQLQQSGTELLKPGASVKLSCKASGNTVTSYWMHWVKQRPGQGLEWIGEILPSTGRTNYNENFKGKAMLTVDKSSSTAYMQLSSLASEDSAVYYCTIVYFGNPWFAYWGQGTLVTVSA VL: QIVLTQSPAIMSASLGERVTMTCTASSSVSSSYLHWYQKKPGSSPKLWVYSTSNLASGVPVRFSGSGSGTSYSLTISSMEAEDAATYYCHQHHRSPVTFGSGTKLEMK | < 0.1 nM | no binding (tested: 100 nM) | no binding (tested: 100 nM) | 1.5 nM | 3 nM | 0.8 nM | 1.8 nM | 2.3 nM | 0.8 nM | 0.009 nM | > 4000 nM | > 333 nM | > 333 nM | 0.8 nM | 0.6 nM | 0.5 nM | 0.8 nM | 0.5 nM | 0.3 nM | 0.6 nM | EC50 (human IL-36R on cells [3]): 0.475 nM; IC90, IL-8 release, NCI/ADR-RES cells, trun-IL-36b (human IL-36R on cells [6]): 0.6 nM; IC90, IL-8 release, NCI/ADR-RES cells, trun-IL-36g (human IL-36R on cells [6]): 0.5 nM; IC90, pNFκB, NCI/ADR-RES cells, trun-IL-36a (human IL-36R on cells [6]): 1.7 nM; IC90, pNFκB, NCI/ADR-RES cells, trun-IL-36b (human IL-36R on cells [6]): 1.3 nM; IC90, pNFκB, NCI/ADR-RES cells, trun-IL-36g (human IL-36R on cells [6]): 1.1 nM |
| antibody 73C5 (antibody, V domains shown, Mouse monoclonal from hybridoma; also called 73C5C10; Mouse 73C5) VH: QVQLKESGPGLVAPSQSLSITCTVSGFSLTNYAVHWVRQFPGKGLEWLGVIWSDGSTDFNAPFKSRLSINKDNSKSQVFFKMNSLQIDDTAIYYCARKGGYSGSWFAYWGQGTLVTVSA VL: DIVMTQSQKFLSTSVGVRVSVTCKASQDVGTNVLWYQQKIGQSPKPLIYSASYRHSGVPDRFTGSGSGTDFTLIISNVQSEDLAEYFCQQYSRYPLTFGPGTKLELK | < 0.1 nM | no binding (tested: 100 nM) | no binding (tested: 100 nM) | 20.8 nM | 46 nM | 2.4 nM | 10.7 nM | 14.4 nM | 1.7 nM | 0.057 nM | 0.2 nM | 1.6 nM | 1.5 nM | 4.8 nM | 1.4 nM | 2 nM | 19 nM | 3.8 nM | 1.9 nM | 3.3 nM | IC90, IL-8 release, NCI/ADR-RES cells, trun-IL-36b (human IL-36R on cells [6]): 0.6 nM; IC90, IL-8 release, NCI/ADR-RES cells, trun-IL-36g (human IL-36R on cells [6]): 1.4 nM; IC90, pNFκB, NCI/ADR-RES cells, trun-IL-36a (human IL-36R on cells [6]): 3.4 nM; IC90, pNFκB, NCI/ADR-RES cells, trun-IL-36b (human IL-36R on cells [6]): 3.4 nM; IC90, pNFκB, NCI/ADR-RES cells, trun-IL-36g (human IL-36R on cells [6]): 2.5 nM |
